Source: IntAct's records for PubMed 28469241

B1: Heart- and neural crest derivatives-expressed protein 2 (Mus musculus), Q61039 (parent)
chain: MSLVGGFPHHPVVHHEGYPFAAAAAAAAAAAASRCSHEENPYFHGWLIGHPEMSPPDYSMALSYSPEYASGAAGLDHSHYGGVPPGAGPPGLGGPRPVKRRGTANRKERRRTQSINSAFAELRECIPNVPADTKLSKIKTLRLATSYIAYLMDLLAKDDQNGEAEAFKAEIKKTDVKEEKRKKELNEILKSTVSSNDKKTKGRTGWPQHVWALELKQ
partner: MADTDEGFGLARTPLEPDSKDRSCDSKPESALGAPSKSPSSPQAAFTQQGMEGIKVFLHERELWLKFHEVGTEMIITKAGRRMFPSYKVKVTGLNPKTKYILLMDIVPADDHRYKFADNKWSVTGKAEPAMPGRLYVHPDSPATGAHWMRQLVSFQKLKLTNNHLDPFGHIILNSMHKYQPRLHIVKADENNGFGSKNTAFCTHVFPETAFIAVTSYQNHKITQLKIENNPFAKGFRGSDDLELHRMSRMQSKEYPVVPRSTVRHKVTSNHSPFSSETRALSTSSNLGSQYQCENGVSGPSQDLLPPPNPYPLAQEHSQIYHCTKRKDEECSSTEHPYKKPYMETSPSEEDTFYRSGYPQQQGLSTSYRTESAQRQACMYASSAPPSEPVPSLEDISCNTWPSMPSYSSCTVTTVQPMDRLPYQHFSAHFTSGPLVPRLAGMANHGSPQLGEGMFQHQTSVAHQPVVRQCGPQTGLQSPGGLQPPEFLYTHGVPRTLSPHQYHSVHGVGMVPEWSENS

Variants of: B1
Settings: with tbx5_mouse Tbx5, P70326

Row | effect of a mutation on the interaction | Variant
1 | decreasing interaction strength | MSLVGGFPHHPVVHHEGYPFAAAAAAAAAAAASRCSHEENPYFHGWLIGHPEMSPPDYSMALSYSPEYASGAAGLDHSHYGGVPPGAGPPGLGGPRPVKRRGTANRKERRRTQSINSAFAELRECIPNVPADTKLSKIKTLRLATSYIAYLMDLLAKDDQNGEAEAFKAEIKKTDVKEEKRKKELNEILKSTVSSNDKKTKVRTGWPQHVWALELKQ [G202V]
